System: Escherichia coli TOP10
Assay: shrunken log2 fold change of peptide-encoding DNA abundance (4.5 h post-induction vs induction); higher = less antimicrobial activity (less host growth inhibition)
Conditions: time post-induction: 4.5 h; library: site-saturation at positions 5, 18, 19, 20
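Note: peptides expressed intracellularly from a pBAD plasmid library in pooled LB shake-flask culture, induced with 0.3% L-arabinose, DNA abundance read by NGS, three biological replicates, DESeq2 with apeglm shrinkage.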

Row | Sequence | shrunken log2 fold change
1 | RRIRPRPPRLPRPRPRPEVTPRP | 0.198
2 | RRIRLRPPRLPRPRPRPQKHPRP | -0.299
3 | RRIRWRPPRLPRPRPRPIRQPRP | -0.0309
4 | RRIRNRPPRLPRPRPRPGLYPRP | -0.581
5 | RRIRGRPPRLPRPRPRPIYPPRP | 0.119
6 | RRIRYRPPRLPRPRPRPNVEPRP | -0.155
7 | RRIRHRPPRLPRPRPRPVTNPRP | -0.222
8 | RRIRNRPPRLPRPRPRPNLKPRP | -0.33
9 | RRIRCRPPRLPRPRPRPRGGPRP | 0.508
10 | RRIRCRPPRLPRPRPRPQIYPRP | -0.579
11 | RRIRRRPPRLPRPRPRPLLIPRP | 0.145
12 | RRIRDRPPRLPRPRPRPNSHPRP | 0.0526
13 | RRIRQRPPRLPRPRPRPNGWPRP | -0.0145
14 | RRIRQRPPRLPRPRPRPHMGPRP | -0.512
15 | RRIRKRPPRLPRPRPRPWTKPRP | -0.0423
16 | RRIRFRPPRLPRPRPRPQMDPRP | 0.0317
17 | RRIRFRPPRLPRPRPRPRGEPRP | 0.125
18 | RRIRIRPPRLPRPRPRPCQKPRP | -0.0157
19 | RRIRVRPPRLPRPRPRPDLDPRP | 0.156
20 | RRIRDRPPRLPRPRPRPAYAPRP | 0.058
21 | RRIRDRPPRLPRPRPRPVPVPRP | -0.346
22 | RRIRVRPPRLPRPRPRPWRPPRP | 0.328
23 | RRIRCRPPRLPRPRPRPYIEPRP | -1.03
24 | RRIRNRPPRLPRPRPRPERPPRP | 0.499
25 | RRIRYRPPRLPRPRPRPKHQPRP | -0.441

Row | Sequence | shrunken log2 fold change
26 | RRIRFRPPRLPRPRPRPMTTPRP | 0.000405
27 | RRIRIRPPRLPRPRPRPIQNPRP | -0.225
28 | RRIRRRPPRLPRPRPRPERKPRP | 0.0556
29 | RRIRGRPPRLPRPRPRPCVIPRP | 0.033
30 | RRIRWRPPRLPRPRPRPAGVPRP | 0.66
31 | RRIRCRPPRLPRPRPRPWFFPRP | -0.24
32 | RRIRVRPPRLPRPRPRPEVVPRP | -0.0305
33 | RRIRGRPPRLPRPRPRPDWHPRP | 0.238
34 | RRIRCRPPRLPRPRPRPRHDPRP | -0.234
35 | RRIRGRPPRLPRPRPRPPPMPRP | 1.19
36 | RRIRIRPPRLPRPRPRPNGKPRP | -0.229
37 | RRIRYRPPRLPRPRPRPIRTPRP | -0.258
38 | RRIRARPPRLPRPRPRPVAKPRP | 0.577
39 | RRIRTRPPRLPRPRPRPHTMPRP | -0.406
40 | RRIRIRPPRLPRPRPRPFLIPRP | -0.606
41 | RRIRVRPPRLPRPRPRPDTGPRP | -0.00804
42 | RRIRCRPPRLPRPRPRPPWDPRP | 0.526
43 | RRIRRRPPRLPRPRPRPGCPPRP | 0.414
44 | RRIRVRPPRLPRPRPRPWGCPRP | 0.076
45 | RRIRKRPPRLPRPRPRPPINPRP | -0.0392
46 | RRIRCRPPRLPRPRPRPHSDPRP | -0.412
47 | RRIRTRPPRLPRPRPRPCHVPRP | -0.114
48 | RRIRHRPPRLPRPRPRPKFGPRP | 0.0962
49 | RRIRNRPPRLPRPRPRPQYWPRP | -0.37
50 | RRIRWRPPRLPRPRPRPGLFPRP | 2.38

Row | Sequence | shrunken log2 fold change
51 | RRIRKRPPRLPRPRPRPILFPRP | -0.0861
52 | RRIRCRPPRLPRPRPRPNDMPRP | -0.328
53 | RRIRNRPPRLPRPRPRPPVVPRP | 0.000966
54 | RRIRPRPPRLPRPRPRPSGLPRP | -0.199
55 | RRIRMRPPRLPRPRPRPNRKPRP | -0.0954
56 | RRIRQRPPRLPRPRPRPICEPRP | 0.0925
57 | RRIRTRPPRLPRPRPRPYQAPRP | -0.206
58 | RRIRERPPRLPRPRPRPFSIPRP | 0.00587
59 | RRIRTRPPRLPRPRPRPLANPRP | -0.105
60 | RRIRDRPPRLPRPRPRPTKHPRP | -0.0699
61 | RRIRLRPPRLPRPRPRPVFVPRP | -0.198
62 | RRIRRRPPRLPRPRPRPTELPRP | 0.42
63 | RRIRQRPPRLPRPRPRPMKMPRP | 0.0133
64 | RRIRVRPPRLPRPRPRPCIKPRP | -0.592
65 | RRIRDRPPRLPRPRPRPEQTPRP | 0.0162
66 | RRIRYRPPRLPRPRPRPRKIPRP | -0.483
67 | RRIRMRPPRLPRPRPRPRCNPRP | 0.105
68 | RRIRFRPPRLPRPRPRPHHHPRP | -0.678
69 | RRIRGRPPRLPRPRPRPATQPRP | 0.631
70 | RRIRCRPPRLPRPRPRPGDEPRP | 0.105
71 | RRIRHRPPRLPRPRPRPQTIPRP | -0.793
72 | RRIRIRPPRLPRPRPRPSIHPRP | -1.28
73 | RRIRTRPPRLPRPRPRPKDDPRP | -0.124
74 | RRIRHRPPRLPRPRPRPKDMPRP | -0.282
75 | RRIRERPPRLPRPRPRPKNTPRP | -0.439

Row | Sequence | shrunken log2 fold change
76 | RRIRYRPPRLPRPRPRPFLWPRP | -0.0621
77 | RRIRARPPRLPRPRPRPACMPRP | 0.313
78 | RRIRRRPPRLPRPRPRPWGQPRP | 0.0104
79 | RRIRMRPPRLPRPRPRPLLYPRP | 0.0402
80 | RRIRVRPPRLPRPRPRPPLDPRP | 0.433
81 | RRIRGRPPRLPRPRPRPMGIPRP | 0.0179
82 | RRIRERPPRLPRPRPRPSWDPRP | -0.247
83 | RRIRMRPPRLPRPRPRPVHRPRP | 0.872
84 | RRIRTRPPRLPRPRPRPQVIPRP | -0.232
85 | RRIRVRPPRLPRPRPRPMSGPRP | -0.0469
86 | RRIRMRPPRLPRPRPRPEDEPRP | 2.06
87 | RRIRSRPPRLPRPRPRPGYMPRP | -0.148
88 | RRIRVRPPRLPRPRPRPGCCPRP | 0.385
89 | RRIRERPPRLPRPRPRPPAEPRP | 0.758
90 | RRIRARPPRLPRPRPRPFCCPRP | 0.206
91 | RRIRIRPPRLPRPRPRPHGDPRP | -0.125
92 | RRIRRRPPRLPRPRPRPLRMPRP | 1.2
93 | RRIRQRPPRLPRPRPRPPLHPRP | 0.24
94 | RRIRFRPPRLPRPRPRPDAFPRP | -0.491
95 | RRIRPRPPRLPRPRPRPNGKPRP | -0.257
96 | RRIRCRPPRLPRPRPRPYVEPRP | -0.942
97 | RRIRCRPPRLPRPRPRPTNEPRP | -0.213
98 | RRIRGRPPRLPRPRPRPWWWPRP | 0.152
99 | RRIRCRPPRLPRPRPRPLQHPRP | -0.0615
100 | RRIRERPPRLPRPRPRPYNEPRP | -0.178

Row | Sequence | shrunken log2 fold change
101 | RRIRSRPPRLPRPRPRPQGLPRP | 0.0641
102 | RRIRCRPPRLPRPRPRPWGCPRP | -0.00936
103 | RRIRGRPPRLPRPRPRPRIRPRP | 0.211
104 | RRIRLRPPRLPRPRPRPVKIPRP | -0.169
105 | RRIRPRPPRLPRPRPRPYSNPRP | -1.31
106 | RRIRGRPPRLPRPRPRPVEVPRP | 1.03
107 | RRIRTRPPRLPRPRPRPSYCPRP | 0.0739
108 | RRIRIRPPRLPRPRPRPRKWPRP | 0.0966
109 | RRIRSRPPRLPRPRPRPLAAPRP | 0.562
110 | RRIRPRPPRLPRPRPRPMYHPRP | -0.35
111 | RRIRHRPPRLPRPRPRPEWLPRP | 0.274
112 | RRIRGRPPRLPRPRPRPIPSPRP | 0.485
113 | RRIRKRPPRLPRPRPRPAKQPRP | 0.0123
114 | RRIRYRPPRLPRPRPRPWFPPRP | -0.523
115 | RRIRPRPPRLPRPRPRPEYYPRP | -0.335
116 | RRIRVRPPRLPRPRPRPLMMPRP | -0.331
117 | RRIRHRPPRLPRPRPRPKTKPRP | 0.0995
118 | RRIRIRPPRLPRPRPRPALHPRP | -0.268
119 | RRIRMRPPRLPRPRPRPTETPRP | 0.511
120 | RRIRMRPPRLPRPRPRPTDRPRP | 0.894
121 | RRIRKRPPRLPRPRPRPDEEPRP | 2.82
122 | RRIRPRPPRLPRPRPRPTVKPRP | -0.00591
123 | RRIRQRPPRLPRPRPRPRWKPRP | 0.552
124 | RRIRNRPPRLPRPRPRPRTAPRP | -0.0352
125 | RRIRCRPPRLPRPRPRPDDIPRP | 0.0301

Row | Sequence | shrunken log2 fold change
126 | RRIRRRPPRLPRPRPRPSVFPRP | 0.141
127 | RRIRHRPPRLPRPRPRPHCWPRP | -0.0124
128 | RRIRLRPPRLPRPRPRPMWWPRP | 1.19
129 | RRIRLRPPRLPRPRPRPQPIPRP | 0.0892
130 | RRIRWRPPRLPRPRPRPCEVPRP | -0.00149
131 | RRIRCRPPRLPRPRPRPKQQPRP | 0.143
132 | RRIRKRPPRLPRPRPRPLEEPRP | 1.76
133 | RRIRQRPPRLPRPRPRPSDVPRP | -0.0706
134 | RRIRCRPPRLPRPRPRPGCNPRP | -0.425
135 | RRIRNRPPRLPRPRPRPYRQPRP | -0.01
136 | RRIRQRPPRLPRPRPRPDDGPRP | -0.171
137 | RRIRIRPPRLPRPRPRPVVPPRP | -0.215
138 | RRIRFRPPRLPRPRPRPWLRPRP | -0.0551
139 | RRIRTRPPRLPRPRPRPLTTPRP | -0.0573
140 | RRIRNRPPRLPRPRPRPHWCPRP | 0.0251
141 | RRIRCRPPRLPRPRPRPVHDPRP | 0.141
142 | RRIRNRPPRLPRPRPRPYKKPRP | -0.00559
143 | RRIRIRPPRLPRPRPRPVKDPRP | -0.00153
144 | RRIRNRPPRLPRPRPRPFYPPRP | -0.5
145 | RRIRIRPPRLPRPRPRPPRSPRP | 0.272
146 | RRIRLRPPRLPRPRPRPKTEPRP | 0.14
147 | RRIRFRPPRLPRPRPRPISGPRP | 0.00212
148 | RRIRGRPPRLPRPRPRPELCPRP | 0.18
149 | RRIRLRPPRLPRPRPRPMMVPRP | -0.145
150 | RRIRVRPPRLPRPRPRPAVIPRP | -0.0266
